Measured values published in article PMC8492067 (eLife, 2021).

How the values were obtained:
[1] = molecular target: T1, NrnCBh (Bartonella henselae, UniProt A0A0R4J6U7); assay: DraCALA nitrocellulose spot binding, radiolabelled ligand
T1 construct: gene rnd1

[2] = molecular target: T2, NrnCBh (nano-RNase C) (Bartonella henselae, UniProt A0A0R4J6U7 1-206); assay: cryo-EM; only 3' dinucleotide resolved; DraCALA: 10 mM Tris-HCl pH 8, 100 mM NaCl, 5 mM CaCl2; temperature not stated; settings: protein: recombinant; tags: tag-less (His6-SUMO removed by Ulp-1); chain copies: 8
T2 sequence: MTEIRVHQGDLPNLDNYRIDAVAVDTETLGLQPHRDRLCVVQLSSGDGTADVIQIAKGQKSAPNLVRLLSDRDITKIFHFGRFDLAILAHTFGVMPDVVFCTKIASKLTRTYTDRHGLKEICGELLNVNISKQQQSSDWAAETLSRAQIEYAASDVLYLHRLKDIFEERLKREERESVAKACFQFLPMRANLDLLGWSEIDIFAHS

[3] = molecular target: the molecule itself; assay: crystal structure
[4] = molecular target: the molecule itself; assay: SEC-MALS
[5] = molecular target: T2, NrnCBh (nano-RNase C); assay: cryo-EM; DraCALA: 10 mM Tris-HCl pH 8, 100 mM NaCl, 5 mM CaCl2; temperature not stated; settings: protein: recombinant; tags: tag-less (His6-SUMO removed by Ulp-1); chain copies: 8
[6] = molecular target: T2, NrnCBh (nano-RNase C); assay: DraCALA (nitrocellulose); DraCALA: 10 mM Tris-HCl pH 8, 100 mM NaCl, 5 mM CaCl2; temperature not stated; settings: protein: recombinant; tags: tag-less (His6-SUMO removed by Ulp-1); chain copies: 8

Molecule: Nc1nc2c(ncn2[C@@H]2O[C@H](COP(=O)(O)O[C@H]3[C@@H](O)[C@H](n4cnc5c(=O)[nH]c(N)nc54)O[C@@H]3COP(=O)(O)O[C@H]3[C@@H](O)[C@H](n4cnc5c(N)ncnc54)O[C@@H]3COP(=O)(O)O)[C@@H](O)[C@H]2O)c(=O)[nH]1 [pAGG]
- Kd [1]: 3.49 µM

Molecule: Nc1nc2c(ncn2[C@@H]2O[C@H](COP(=O)(O)O[C@H]3[C@@H](O)[C@H](n4cnc5c(=O)[nH]c(N)nc54)O[C@@H]3COP(=O)(O)O)[C@@H](O)[C@H]2O)c(=O)[nH]1 [pGG]
- Kd [1]: 0.0177 µM

B1: pAGG (ssRNA)
RNA: AGG
modifications: 5' phosphate
- binding result [2]: binds

B2: Bartonella henselae nano-RNase C (NrnC), wild type (enzyme)
chain: MTEIRVHQGDLPNLDNYRIDAVAVDTETLGLQPHRDRLCVVQLSSGDGTADVIQIAKGQKSAPNLVRLLSDRDITKIFHFGRFDLAILAHTFGVMPDVVFCTKIASKLTRTYTDRHGLKEICGELLNVNISKQQQSSDWAAETLSRAQIEYAASDVLYLHRLKDIFEERLKREERESVAKACFQFLPMRANLDLLGWSEIDIFAHS
notes: also called NrnCBh; wild-type NrnCBh
- stoichiometry N [3]: 8

B3: Bartonella henselae NrnC L31A (enzyme)
chain: MTEIRVHQGDLPNLDNYRIDAVAVDTETLGAQPHRDRLCVVQLSSGDGTADVIQIAKGQKSAPNLVRLLSDRDITKIFHFGRFDLAILAHTFGVMPDVVFCTKIASKLTRTYTDRHGLKEICGELLNVNISKQQQSSDWAAETLSRAQIEYAASDVLYLHRLKDIFEERLKREERESVAKACFQFLPMRANLDLLGWSEIDIFAHS
notes: L-wedge mutant
- stoichiometry N [4]: 8

B4: Bartonella henselae NrnC H79A (enzyme)
chain: MTEIRVHQGDLPNLDNYRIDAVAVDTETLGLQPHRDRLCVVQLSSGDGTADVIQIAKGQKSAPNLVRLLSDRDITKIFAFGRFDLAILAHTFGVMPDVVFCTKIASKLTRTYTDRHGLKEICGELLNVNISKQQQSSDWAAETLSRAQIEYAASDVLYLHRLKDIFEERLKREERESVAKACFQFLPMRANLDLLGWSEIDIFAHS
notes: Phosphate cap mutant
- stoichiometry N [4]: 8

B5: Bartonella henselae NrnC Y151A (enzyme)
chain: MTEIRVHQGDLPNLDNYRIDAVAVDTETLGLQPHRDRLCVVQLSSGDGTADVIQIAKGQKSAPNLVRLLSDRDITKIFHFGRFDLAILAHTFGVMPDVVFCTKIASKLTRTYTDRHGLKEICGELLNVNISKQQQSSDWAAETLSRAQIEAAASDVLYLHRLKDIFEERLKREERESVAKACFQFLPMRANLDLLGWSEIDIFAHS
- stoichiometry N [4]: 8

B6: Bartonella henselae NrnC D25A (enzyme)
chain: MTEIRVHQGDLPNLDNYRIDAVAVATETLGLQPHRDRLCVVQLSSGDGTADVIQIAKGQKSAPNLVRLLSDRDITKIFHFGRFDLAILAHTFGVMPDVVFCTKIASKLTRTYTDRHGLKEICGELLNVNISKQQQSSDWAAETLSRAQIEYAASDVLYLHRLKDIFEERLKREERESVAKACFQFLPMRANLDLLGWSEIDIFAHS
- stoichiometry N [4]: 8

B7: Bartonella henselae NrnC K103A (enzyme)
chain: MTEIRVHQGDLPNLDNYRIDAVAVDTETLGLQPHRDRLCVVQLSSGDGTADVIQIAKGQKSAPNLVRLLSDRDITKIFHFGRFDLAILAHTFGVMPDVVFCTAIASKLTRTYTDRHGLKEICGELLNVNISKQQQSSDWAAETLSRAQIEYAASDVLYLHRLKDIFEERLKREERESVAKACFQFLPMRANLDLLGWSEIDIFAHS
notes: Phosphate cap mutant
- stoichiometry N [4]: 8

B8: Bartonella henselae NrnC H205A (enzyme)
chain: MTEIRVHQGDLPNLDNYRIDAVAVDTETLGLQPHRDRLCVVQLSSGDGTADVIQIAKGQKSAPNLVRLLSDRDITKIFHFGRFDLAILAHTFGVMPDVVFCTKIASKLTRTYTDRHGLKEICGELLNVNISKQQQSSDWAAETLSRAQIEYAASDVLYLHRLKDIFEERLKREERESVAKACFQFLPMRANLDLLGWSEIDIFAAS
- stoichiometry N [4]: 8

B9: pAAAGG (ssRNA)
RNA: AAAGG
modifications: 5' phosphate
- binding result [5]: binds

B10: pAAAAAGG (ssRNA)
RNA: AAAAAGG
modifications: 5' phosphate
- Kd [6]: 0.576 µM

B11: Brucella melitensis nano-RNase C (NrnC), wild type (enzyme)
chain: MTIRFHRNDLPNLDNYQVDAVAIDTETLGLNPHRDRLCVVQISPGDGTADVIQIEAGQKKAPNLVKLLKDRSITKIFHFGRFDLAVLAHAFGTMPQPVFCTKIASKLTRTYTDRHGLKEICSELLDVSISKQQQSSDWAAEVLSQAQLEYAASDVLYLHRLKAVLEQRLERDGRTKQAEACFKFLPTRSELDLMGWAESDIFAHS
notes: also called NrnCBm
- stoichiometry N [3]: 8
